Experimental data published in US6469141B1, “D1-like dopamine receptor activity modifying protein” (Medical College of Georgia Research Institute Inc., priority 1998, dated 2002).

Assays:
[1] = binding of 3H-labeled phospholipid vesicles to resin-bound S-Calcyon; settings: 25 μl S-agarose resin, one hour, room temperature
Method: FIG. 4 is a graph showing that calcyon's cytoplasmic domain binds PIP2. S-Calcyon bound to 25 μl of S-agarose resin, or 25 μl of S-agarose resin only was incubated for one hour at room temperature with phospholipid vesicles containing phosphotidylcholine (PC), phosphotidylethanolamine (PE), or PC, PE, and PIP2. Both types of vesicles were radioactively labeled with equivalent amounts of ^3H-phosphatidylcholine. Following incubation, resins were washed three times with ten volumes of buffer (20 mM hepes, pH 7.4), and amounts of bound phospholipid determined by liquid scintillation counting. Results are reported as percent of input radiolabel precipitated. Bars represent average value obtained in three independent assays with standard error of the mean.
Tests were conducted to determine whether Calcyon can bind PIP2 using the S-Calcyon fusion protein. S-Calcyon contains the predicted cytoplasmic domain of Calcyon (residues 93-217) preceded by an ‘S’ tag (for coupling to S-agarose resin). […] Following incubation, resin was washed three times with ten volumes of buffer (20 mM Hepes, pH 7.4), and amounts of bound phospholipid were determined by liquid scintillation counting. […] Results are reported as percent of input radiolabel precipitated, bars represent the standard error of the mean of each value determined in triplicate. […]

[2] = molecular target: T1, full-length D1 DA receptors (Homo sapiens, UniProt P21728); assay: S-agarose pull-down assay with D1 HEK293 cell lysates; format: binding; settings: detergent solubilized D1 HEK293 lysates
T1 construct: expressed in transfected cells; host or cells: D1 HEK293 cell lysate (receptor); BL21(DE3) E. coli (S-Calcyon)
T1 sequence (P21728 whole entry): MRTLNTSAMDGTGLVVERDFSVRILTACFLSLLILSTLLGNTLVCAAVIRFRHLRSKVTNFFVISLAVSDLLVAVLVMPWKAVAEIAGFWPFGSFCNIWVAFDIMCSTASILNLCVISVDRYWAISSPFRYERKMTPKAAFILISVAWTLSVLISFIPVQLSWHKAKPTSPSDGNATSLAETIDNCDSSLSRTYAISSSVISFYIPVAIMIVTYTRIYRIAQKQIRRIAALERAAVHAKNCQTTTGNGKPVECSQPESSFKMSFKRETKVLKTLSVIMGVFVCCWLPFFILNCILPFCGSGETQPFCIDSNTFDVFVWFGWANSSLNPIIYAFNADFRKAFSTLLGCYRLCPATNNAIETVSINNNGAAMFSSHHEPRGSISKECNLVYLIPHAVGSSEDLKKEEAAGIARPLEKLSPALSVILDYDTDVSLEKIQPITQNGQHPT
Text: (§1) For pull-down assays, a 550 bp Nco I-Bgl II fragment from pACT-Calcyon was subcloned into pET30a (Novagen, Madison, Wis.) to produce the S-Calcyon fusion protein containing residues 93-217 of the predicted Calcyon protein as well as an N-terminal tag composed of the 15 residue S peptide of ribonuclease S (Richards, F. M., et al., The Enzymes. ed.: Boyer, P. D., Academic Press, N.Y., pp. 647-806 (1971)). The S-β-galactosidase fusion protein was composed of bacterial β-galactosidase protein tagged at its N-terminus with the S peptide. Fusion proteins were induced in BL2I(DE3) E. coli with IPTG, and coupled to S-agarose resin (Novagen, Madison, Wis.) by incubating soluble fractions of bacterial lysates with resin for 1 h at RT Following incubation, unbound proteins were eliminated by washing the resin three times in 50 volumes of 25 mM HEPES (pH 7.4), 50 mM NaCl. […]
A human embryonic kidney (HEK) 293 cell line, designated D1 HEK293, that stably expresses hD1 receptors was used to test the ability of S-Calcyon to interact with full-length D1 DA receptors. […] Proteins retained by the S-tagged target polypeptides were analyzed by immunoblotting with D1 receptor antibodies as described above. […]

[3] = molecular target: T2, GSTD1 (C-terminal 81 residues of hD1 receptor) (Homo sapiens, UniProt P21728); assay: S-agarose pull-down assay with GSTD1 fusion protein; format: binding; settings: immunoblot with D1 receptor antibodies
T2 construct: C-terminal 81 amino acids of the hD1 receptor (residues 365-446); made in house; host or cells: S-Calcyon: BL21(DE3) E. coli
T2 sequence (P21728 365-446): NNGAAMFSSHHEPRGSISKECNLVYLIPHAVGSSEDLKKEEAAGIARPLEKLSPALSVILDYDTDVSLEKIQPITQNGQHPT
Text: as §1, with “NaCl. Interaction assays were performed with GSTD1 purified as described (Bergson, C., et al., J. Neurosci. 15:7821-36 (1995)) or solubilized lysates of D1 HEK293 cells in 25 mM HEPES (pH 7.4), 50 mM NaCl, 10% glycerol, 1% bovine serum albumin containing 0.5% NP-40. Peptidel 421-435 ([…]) (SEQ ID No. 3) and Peptide2 ([…]) (SEQ ID No. 4) were synthesized using an Applied Biosystems 430A Peptide Synthesizer using the FastMoc procedures and reagents supplied by Perkin-Elmer, Applied Biosystems division.” for “NaCl.”

B1: S-Calcyon: fusion protein containing residues 93-217 of Calcyon with N-terminal 15 residue S peptide tag (protein)
chain: KETAAAKFERQHMDSMALLGCVLIMYKAIWYDQFTCPDGFLLRHKICTPLTLEMYYTEMDPERHRSILAAIGAYPLSRKHGTETPAAWGDGYRAAKEERKGPTQAGAAAAATEPPGKPSAKAEKEAARKAAGSAAPPPAQ
precipitation of PIP2 containing vesicles vs vesicles of PC and PE only [1]: more than five times more effectively
pull-down of full-length D1 receptor by resin-immobilized S-tagged protein [2]: Bands of similar size were also present
pull-down of GSTD1 by resin-immobilized S-tagged protein [3]: A D1 antibody reactive band of similar size was present
